Reference: the Immune Epitope Database (IEDB)

Key:
Assay in all cases: IEDB peptide-MHC binding, purified MHC/competitive/radioactivity; ≥ and ≤ were set here for values at or beyond the usual limits of such assays
Settings in all cases: source organism: Bordetella pertussis
HLA-B*44:03 = target: HLA-B*44:03
HLA-B*53:01 = target: HLA-B*53:01
HLA-A*02:01 = target: HLA-A*02:01
HLA-B*07:02 = target: HLA-B*07:02
HLA-B*57:01 = target: HLA-B*57:01

Sequence	IC50 (HLA-B*44:03) [µM]	IC50 (HLA-B*53:01) [µM]	also measured
ANEANALLW	9.19		
EVDGIIQEF	15.9		
FDTMLGFAI		2.91	
FTHADGWFL			IC50 (HLA-A*02:01): 14 µM
ILPILVLAL			IC50 (HLA-A*02:01): 0.0254 µM
LSDAGHEHD		36.5	
NPQTQLSNI		23.6	
PGTFTAGKD			IC50 (HLA-A*02:01): 62.5 µM
PGTPGDLLE		≥ 78.2	
PPRPVVAEK			IC50 (HLA-B*07:02): 69.6 µM
SSTPLGSLF			IC50 (HLA-B*57:01): ≥ 70.4 µM
VEASAITTY	1.97		
YEDATFETY	3.73		
